Results taken from patent publication US10792329B2, “S100 based treatment of cardiac power failure” (Ruprecht-Karls-Universitat Heidelberg, priority 2013, dated 2020).

Assays:
Assay type in all cases: in vivo
[1] = tested on: domestic pigs with impaired cardiac function (post-ischemic heart failure); test: CrP/ATP as surrogate for cardiac metabolism in failing pig myocardium; settings: re-expression to normal and up to a 50 fold increase
Source text: (§1) This Example details the therapeutic window of viral-based re-expression and augmentation of myocardial S100A1 protein concentrations in domestic pigs with impaired cardiac function. The results for S100A1 dose-dependency in heart failure mice provide the base for determining the therapeutic window of S100A1 re-expression animal models that approximate human weight, size and cardiovascular anatomy and pathophysiology. Post-ischemic heart failure in pigs was induced by experimental myocardial infarction through temporary occlusion of the left circumflex coronary artery by percutaneous balloon occlusion. S100A1 re-expression and overexpression was achieved by retrograde intravenous application of increasing dosages of AAV6-S100A1 with S100A1 expression controlled by a cardiac specific promoter element. Analytical techniques and molecular tools used to this end are described in detail in Pleger et al. Science Translational Medicine (2011) 3, 92ra64. AAV6 was used in addition to AAV9 exploiting its greater myocardial transduction efficacy of AAV6 to achieve increasing myocardial S100A1 protein concentrations. S100A1 re-/overexpression 1.6, 6, 20 and 50 fold corresponds to intravenous AAV9-S100A1 dosages (total virus particles; tvp) of 1.5×10^13 (1.6-fold) and AAV6-S100A1 dosages of 1.5×10^11 (6-fold), 1.5×10^12 (20 fold) and 1.5×10^13 (50-fold), respectively. […]

[2] = tested on: domestic pigs with impaired cardiac function (post-ischemic heart failure); test: β-adrenergically triggered ventricular tachyarrhythmias, large animal model; settings: large animal example, FIG. 8
Source text: as §1

[3] = tested on: domestic pigs with impaired cardiac function (post-ischemic heart failure); test: Cardiac function (LV EF %, LV+dp/dt max) in failing pig hearts
Source text: as §1

[4] = tested on: C57B/6 mice with impaired cardiac function due to experimental myocardial infarction; test: β-adrenergically triggered ventricular tachyarrhythmias in failing mouse hearts
Procedure: (§2) The therapeutic window of viral-based re-expression and augmentation of myocardial S100A1 protein concentrations in mice with impaired cardiac function was then analysed. The results for S100A1 dose-dependency in normal mice provides the basis for determining the therapeutic window of S100A1 re-expression in C57B/6 mice with impaired cardiac function due to experimental myocardial infarction through temporary occlusion of the left anterior coronary artery as technically described in detail in Brinks et al. Circ Res (2010) 107; 1140-1149. Techniques for intravenous application of AAV9 for gradual increases in global myocardial transgene expression are described in detail in Voelkers et al. Circ Res (2011) 108; 27-39; in Most et al. JCI (2004) 114; 1550-1563 echocardiography for cardiac function analysis. […] Total S100A1 protein amount in murine myocardium was assessed by ELISA as described in detail in Example 4. S100A1 concentrations were measured by Western Blot as described by Most et al. JCI (2004) 114; 1550-1563 using a custom-made rabbit anti-S100A1 polyclonal IgG antibody (SA 5632). […] Conversion between n-fold relative changes assessed by WB and total myocardial S100A1 protein measured by ELISA is given by the second x-axis. […]

[5] = tested on: C57B/6 mice with normal cardiac function; test: Cardiac performance (echocardiography, LV EF %) versus myocardial S100A1 protein level in normal mice
Procedure: The range of myocardial S100A1 protein expression that conveys cardiac performance enhancement in mice with normal cardiac function is determined by the use of AAV9-mediated human S100A1 cDNA myocardial delivery. The cardiac performance with respect to gradually increasing myocardial S100A1 protein levels was assessed in normal 6 months old C57B/6 mice with the aim to determine the efficient dose range of S100A1 protein concentrations in normal myocardium for acute and sustained enhancement of cardiac function in vivo. Techniques used are described in detail in Voelkers et al. Circ Res (2011) 108; 27-39 employing intravenous application of AAV9 for a gradual increase in global myocardial transgene expression; in Most et al. JCI (2004) 114; 1550-1563 for echocardiography for cardiac function analysis. AAV9-S100A1 and corresponding control vector generation and use of the cardiac specific promoter element to drive expression of both transgenes is described in detail in Pleger et al. Science Translational Medicine (2011) 3, 92ra64. The S100A1 overexpression (2, 4, 8, 20 and 50 fold) corresponds to intravenous AAV9-S100A1 dosages (total virus particles; tvp) 5×10^10, 1×10^11, 2×10^11, 5×10^11, 1×10^12 respectively. Total S100A1 protein amount in murine myocardium was assessed by ELISA as described in detail in Example 4. S100A1 concentrations were measured by Western Blot as described by Most et al. JCI (2004) 114; 1550-1563 using a custom-made rabbit anti-S100A1 polyclonal IgG antibody (SA 5632). 0.83 μg S100A1 protein/g wet weight myocardium equals normal S100A1 values in healthy left ventricular myocardium and has been set as 1 for relative comparison. Conversion between n-fold relative changes assessed by WB and total myocardial S100A1 protein measured by ELISA is given by the second x-axis. […] The biologically effective S100A1 dosages fall into the range between 0.83 to 41.5 μg S100A1 protein/g wet weight myocardium and peak actions relate to 3.32 μg S100A1 protein (assessed by ELISA).

[6] = tested on: C57B/6 mice with impaired cardiac function due to experimental myocardial infarction; test: Cardiac function (LV EF %, LV+dp/dt max) in failing mouse hearts
Procedure: The therapeutic window of viral-based re-expression and augmentation of myocardial S100A1 protein concentrations in mice with impaired cardiac function was then analysed. The results for S100A1 dose-dependency in normal mice provides the basis for determining the therapeutic window of S100A1 re-expression in C57B/6 mice with impaired cardiac function due to experimental myocardial infarction through temporary occlusion of the left anterior coronary artery as technically described in detail in Brinks et al. Circ Res (2010) 107; 1140-1149. Techniques for intravenous application of AAV9 for gradual increases in global myocardial transgene expression are described in detail in Voelkers et al. Circ Res (2011) 108; 27-39; in Most et al. JCI (2004) 114; 1550-1563 echocardiography for cardiac function analysis. AAV9-S100A1 and corresponding control vector generation and use the cardiac specific promoter element to drive expression of both transgenes is described in detail in Pleger et al. Science Translational Medicine (2011) 3, 92ra64. The S100A1 re-/overexpression 0.7, 2, 4, 8, 20 and 50 fold corresponds to intravenous AAV9-S100A1 dosages (total virus particles; tvp) 2×10^10 ′, 5×10^10, 1×10^11, 2×10^11, 5×10^11, 1×10^12 respectively. Total S100A1 protein amount in murine myocardium was assessed by ELISA as described in detail in Example 4. S100A1 concentrations were measured by Western Blot as described by Most et al. JCI (2004) 114; 1550-1563 using a custom-made rabbit anti-S100A1 polyclonal IgG antibody (SA 5632). Total S100A1 protein amounts below 0.83 μg S100A1 protein/g wet weight myocardium characterizes failing left ventricular myocardium with impaired contractile function. Conversion between n-fold relative changes assessed by WB and total myocardial S100A1 protein measured by ELISA is given by the second x-axis.
Therapeutic actions peak around 4-fold S100A1 overexpression relating to a total S100A1 protein amount of 3.32 μg S100A1 protein/g wet weight myocardium. The S100A1 therapeutic window of contractile performance enhancement falls into the range between 0.25 and 41.4 μg S100A1 protein/g wet weight myocardium. Values reflect the relative range from re-expression to normal and up to 50 fold relative increase in S100A1 protein levels.

[7] = tested on: C57B/6 mice with impaired cardiac function due to experimental myocardial infarction; test: CrP/ATP ratio as surrogate for cardiac metabolism in failing mouse hearts
Procedure: as §2

[8] = re-expression to normal and up to a 50 fold increase

B1: S100A1: EF-hand calcium-binding protein of the S100 family; human S100A1 expressed in myocardium from AAV-delivered cDNA (protein, UniProt P23297 1-94, looked up)
Protein S100-A1: MGSELETAMETLINVFHAHSGKEGDKYKLSKKELKELLQTELSGFLDAQKDVDAVDKVMKELDENGDGEVDFQEYVVLVAALTVACNNFFWENS
With B1 the “CrP/ATP as a surrogate for cardiac metabolism restoration” value [1] was “improves the CrP/ATP”, the “effect of further increase in cardiac S100A1 protein concentrations” value (from here on “effect of further increase”) ([2]; above the therapeutic window) was “complete loss of S100A1's therapeutic actions” and the “β-adrenergically triggered ventricular tachyarrhythmias” value [2, 8] was “prevents β-adrenergically triggered ventricular tachyarrhythmias”. The “effect of further increase” value ([3]; above the therapeutic window) was “complete loss of S100A1's therapeutic actions”, the “cardiac function assessed by LV EF % and LV+dp/dt max” value [3, 8] was “restores and improves cardiac function” and the “effect of further increase” value ([4]; above the therapeutic window) was “complete loss of S100A1's therapeutic anti-arrhythmic actions”. For the same molecule, the “β-adrenergically triggered ventricular tachyarrhythmias” value [4, 8] was “prevents β-adrenergically triggered ventricular tachyarrhythmias”, the “increase of cardiac S100A1 protein concentrations at which left ventricular ejection fraction (LV EF %) peaks” value ([5]; anesthetized normal mice, compared to normal S100A1 protein levels, assessed by WB) was 4-6 fold and the “effect of further increase” value ([5]; normal mice, above the effective range) was “loss of the S100A1-mediated contractile performance enhancement”. For the same molecule, the “S100A1 protein amount of peak actions” value ([5]; normal mice, assessed by ELISA) was 3.32 μg S100A1 protein, the “S100A1 overexpression at which therapeutic actions peak” value [6] was “around 4 fold” and the “total S100A1 protein amount at which therapeutic actions peak” value [6] was 3.32 μg S100A1 protein/g wet weight myocardium. The “cardiac function assessed by LV EF % and LV+dp/dt max” value ([6]; S100A1 re-expression and over-expression) was “restores and improves cardiac function”, the “effect of further increase” value ([6]; above the therapeutic window) was “complete loss of S100A1's therapeutic performance enhancement” and the “effect of further increase” value ([7]; above the therapeutic window) was “complete loss of S100A1's therapeutic anti-arrhythmic actions”. The “CrP/ATP ratio as surrogate for cardiac metabolism restoration” value [7, 8] was “improves the CrP/ATP ratio”.
